Results: patent publication US20110268745A1 (Novo Nordisk, published 2011)

Molecular target: T1, human tissue factor pathway inhibitor (TFPI) (human, UniProt P10646 29-304, biotinylated in the ELISA (site not stated))
T1 construct: Full length TFPI and a short version, TFPIB161B (first two Kunitz domains), were both used for immunisation and ELISA; also called TFPI1; human TFPI1
T1 sequence: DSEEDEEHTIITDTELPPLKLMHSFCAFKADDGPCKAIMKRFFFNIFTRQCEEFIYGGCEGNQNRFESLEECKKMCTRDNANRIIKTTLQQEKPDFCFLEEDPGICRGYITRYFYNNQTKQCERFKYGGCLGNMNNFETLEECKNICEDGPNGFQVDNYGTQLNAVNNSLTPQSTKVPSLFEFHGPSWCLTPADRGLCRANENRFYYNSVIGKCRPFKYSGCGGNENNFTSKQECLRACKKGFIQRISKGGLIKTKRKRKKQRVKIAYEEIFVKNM
Test: hybridoma screening; ELISA with antibody captured on anti-mouse IgG and soluble biotinylated human TFPI or TFPIB161B, as described in the methods
Experimental: Immunoplates were coated with anti-mouse IgG. Culture supernatants from the hybridoma cells were added to the plates and, after washing, soluble biotinylated human TFPI or TFPIB161B was added to test for specific binding.

B1: TFPI-3F18A4B1 (antibody, IgG1, V domains shown)
VH: EVKLVESGGGLVKPGGSLRLSCAASGFTFSNYALSWVRQTPDKRLEWVASISSGGATYYPDSVEGRFTISRDNVRNILYLQMSSLQSEDTAMYYCTRGAYGSDYFDYWGQGTTLTVSS
VL: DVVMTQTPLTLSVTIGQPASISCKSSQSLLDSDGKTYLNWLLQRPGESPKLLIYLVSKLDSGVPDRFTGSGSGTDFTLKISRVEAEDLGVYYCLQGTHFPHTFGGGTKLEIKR
notes: also called TFPI-3F18A2; anti-TFPI antibody 3F18
B1: binds.
